Experimental data published in patent US20230159655A1 (AKESO BIOPHARMA, published 2023).

How the values were obtained:
[1] = target: T1, human NT5E-Biotin (NT5E, GenbankID: NP_002517.1, position: 1-552) (human, UniProt P21589 27-552, biotin (site not stated)); experiment: ELISA on SA-captured NT5E-Biotin; antibody 0.333 ug/mL diluted 1:27; replicate 2
T1 construct: range 1-552; Biotinylated antigen captured on streptavidin-coated plates; also called HNT5E-Biotin; human NTSE-Biotin
T1 sequence (looked up): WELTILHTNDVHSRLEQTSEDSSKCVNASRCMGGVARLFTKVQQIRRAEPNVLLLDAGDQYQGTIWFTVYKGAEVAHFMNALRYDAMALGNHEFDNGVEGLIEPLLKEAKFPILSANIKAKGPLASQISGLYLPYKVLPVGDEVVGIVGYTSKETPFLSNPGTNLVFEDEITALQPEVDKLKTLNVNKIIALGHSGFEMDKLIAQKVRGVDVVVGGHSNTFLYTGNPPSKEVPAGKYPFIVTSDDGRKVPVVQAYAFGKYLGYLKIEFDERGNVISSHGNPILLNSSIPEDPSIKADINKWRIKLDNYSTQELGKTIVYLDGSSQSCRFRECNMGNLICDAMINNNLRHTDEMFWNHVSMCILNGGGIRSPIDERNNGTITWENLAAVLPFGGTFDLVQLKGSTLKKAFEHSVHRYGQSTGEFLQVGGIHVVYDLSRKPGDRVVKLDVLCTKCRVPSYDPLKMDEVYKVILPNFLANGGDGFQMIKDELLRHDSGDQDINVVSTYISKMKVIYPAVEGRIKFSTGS
Protocol: (§1) Experimental steps: a microplate was coated with streptavidin at 2 μg/mL, and then the microplate was incubated at 4° C. for 12 hours. The antigen-coated microplate was rinsed for once with PBST after incubation, and then blocked with a PBST solution containing 1% BSA as a microplate blocking solution for 2 hours. After blocking, the microplate was washed 3 times with PBST. […] The antibody serially diluted with the PBST solution was added to the wells of the microplate. The microplate containing the test antibodies was incubated at 37° C. for 30 minutes, and then washed 3 times with PBST. After the plate was washed, the secondary antibody working solution of HRP-labeled goat anti-human IgG (H+L) (Jackson, Cat. No. 109-035-088) diluted in a ratio of 1:5000 or HRP-labeled goat anti-mouse IgG (H+L) (Jackson, Cat. No. 115-035-062) diluted in a ratio of 1:5000 was added, and then the plate was incubated at 37° C. for 30 minutes. After incubation, the plate was washed 4 times with PBST, TMB (Neogen, 308177) was added in the dark for color development for 5 min, and then a stop solution was added to terminate chromogenic reaction. The microplate was put into a microplate reader immediately, and the OD value of each well in the microplate was read at the light wavelength of 450 nm. The data were analyzed by SoftMax Pro 6.2.1.

[2] = target: T1, human NT5E-Biotin (NT5E, GenbankID: …); experiment: ELISA on SA-captured NT5E-Biotin; antibody 0.333 ug/mL diluted 1:9; replicate 1
Protocol: as §1

[3] = target: T1, human NT5E-Biotin (NT5E, GenbankID: …); experiment: ELISA on SA-captured NT5E-Biotin; antibody 0.333 ug/mL; replicate 1
Protocol: as §1

[4] = target: T1, human NT5E-Biotin (NT5E, GenbankID: …); experiment: ELISA on SA-captured NT5E-Biotin; antibody 0.333 ug/mL diluted 1:3; replicate 2
Protocol: as §1

[5] = target: T1, human NT5E-Biotin (NT5E, GenbankID: …); experiment: ELISA on SA-captured NT5E-Biotin; antibody 0.333 ug/mL diluted 1:3; replicate 1
Protocol: as §1

[6] = target: T1, human NT5E-Biotin (NT5E, GenbankID: …); experiment: ELISA on SA-captured NT5E-Biotin; antibody 0.333 ug/mL diluted 1:81; replicate 1
Protocol: as §1

[7] = target: T1, human NT5E-Biotin (NT5E, GenbankID: …); experiment: ELISA on SA-captured NT5E-Biotin; antibody 0.333 ug/mL diluted 1:243; replicate 2
Protocol: as §1

[8] = target: T1, human NT5E-Biotin (NT5E, GenbankID: …); experiment: ELISA on SA-captured NT5E-Biotin; antibody 0.333 ug/mL diluted 1:243; replicate 1
Protocol: as §1

[9] = target: T1, human NT5E-Biotin (NT5E, GenbankID: …); experiment: ELISA on SA-captured NT5E-Biotin; antibody 0.333 ug/mL diluted 1:729; replicate 1
Protocol: as §1

[10] = target: T1, human NT5E-Biotin (NT5E, GenbankID: …); experiment: ELISA on SA-captured NT5E-Biotin; antibody 0.333 ug/mL diluted 1:81; replicate 2
Protocol: as §1

[11] = target: T1, human NT5E-Biotin (NT5E, GenbankID: …); experiment: ELISA on SA-captured NT5E-Biotin; antibody 0.333 ug/mL; replicate 2
Protocol: as §1

[12] = target: T1, human NT5E-Biotin (NT5E, GenbankID: …); experiment: ELISA on SA-captured NT5E-Biotin; antibody 0 (blank); replicate 1
Protocol: as §1

[13] = target: T1, human NT5E-Biotin (NT5E, GenbankID: …); experiment: ELISA on SA-captured NT5E-Biotin; antibody 0.333 ug/mL diluted 1:729; replicate 2
Protocol: as §1

[14] = target: T1, human NT5E-Biotin (NT5E, GenbankID: …); experiment: ELISA on SA-captured NT5E-Biotin; antibody 0 (blank); replicate 2
Protocol: as §1

OD 450 nm [1]: 2.36 OD450
OD 450 nm [2]: 2.57 OD450
OD 450 nm [3]: 2.71 OD450
OD 450 nm [4]: 2.76 OD450
OD 450 nm [5]: 2.74 OD450
OD 450 nm [6]: 1.69 OD450
OD 450 nm [7]: 1 OD450
OD 450 nm [8]: 1 OD450
OD 450 nm [9]: 0.446 OD450
OD 450 nm [10]: 1.77 OD450
OD 450 nm [11]: 2.74 OD450
OD 450 nm [12]: 0.06 OD450
OD 450 nm [13]: 0.47 OD450
OD 450 nm [14]: 0.062 OD450
B1: murine anti-CD73 monoclonal antibody 19F3 (antibody, V domains shown)
VH: EVQLQQSGPELVKPGASMRMSCKASGYSFTGYTMNWVKQSHGKNLEWIGLINPYNAGTSYNQKFKGKATLTVDKSSSTAYMELLSLTSEDSAVYYCARSEYRYGGDYFDYWGQGTTLTVSS
VL: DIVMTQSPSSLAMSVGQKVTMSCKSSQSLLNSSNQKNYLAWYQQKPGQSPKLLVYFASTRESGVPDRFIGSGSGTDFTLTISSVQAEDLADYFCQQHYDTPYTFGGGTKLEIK
notes: Mouse hybridoma antibody purified on protein A; also called murine antibody 19F3; antibody secreted by hybridoma cell line LT014 (CD73-19F3)
